In assay [1] the target is monoclonal antibody BC203. Description: competitive radioimmunoassay: unlabeled hBNP against 125I-labeled Tyr0-hBNP on BC203 (ascites BC203A diluted 42,000-fold), PEG precipitation.
For assay [2], the target named is human brain natriuretic peptide (hBNP) (human). Description: Scatchard plot from the hBNP standard curve of the radioimmunoassay.
Chain of human brain natriuretic peptide (hBNP) (human) (peptide, as listed by the source): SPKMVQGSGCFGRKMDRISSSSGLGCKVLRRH

Chain of human brain natriuretic peptide (hBNP) (peptide): as the sequence (peptide, as listed by the source) above

Regarding human brain natriuretic peptide (hBNP), in assay [1], the 90% inhibitory concentration worked out at 1.3 ng/mL and the IC50 (commonly the midpoint of a concentration-inhibition curve) is 0.0118 µg/mL.

On to monoclonal antibody BC203, for which, in assay [2], the Ka was found to be 1.3e+09 M⁻¹.

For the origin of these results see US6677124.
